# In patent US20210106703A1, “RADIOIMMUNOCONJUGATES IN COMBINATION WITH OTHER DRUGS AS TREATMENT AGAINST NHL” (Nordic Nanovector ASA, priority 2017, published 2021):
# B1: Lutetium-177 [^177Lu]-lilotomab satetraxetan (conjugate, chains of the INN, looked up)
# VH: EIQLQQSGPELVKPGASVKVSCKASGYSFTDYNMYWVKQSHGKSLEWIGYIDPYNGDTTYNQKFKGKATLTVDKSSSTAFIHLNSLTSEDSAVYYCARSPYGHYAMDYWGQGTSVTVSS
# VL: DIVMTQSHKLLSTSVGDRVSITCKASQDVSTAVDWYQQKPGQSPKLLINWASTRHTGVPDRFTGSGSGTDYTLTISSMQAEDLALYYCRQHYSTPFTFGSGTKLEIK
# modifications: 177Lu satetraxetan chelator conjugate
# Legend:
# Type in all cases: cell-based, human
# DOHH2 cells = assay: Alamar Blue cytotoxicity study; details: Homo sapiens, DOHH-2; DOHH2, 72 h incubation after seeding; read-out: IC50
# Description: (§1) Cells were treated with either Humalutin, olaparib or a combination of both and seeded into 96 well-plates. At each time point after treatment, cells were incubated with Alamar Blue (Thermo Fisher, DALL1100) for 4 hours and fluorescence measurements were performed using a multiplate reader Fluoroskan ascent FL to assess cell proliferation and viability. All experiments were done in duplicates using 2 samples in each experiment. Data were normalized to the untreated controls.
# (§2) Cells were incubated with 0.25, 0.5, 1, 2.5 or 5 μg/ml of Humalutin in cell culture flasks and incubated at 37° C./5% CO2. After 18-20 hours cells were washed and resuspended in fresh medium. Cell bound activity after washing was measured using a calibrated gamma detector (Cobra II auto-gamma detector, Packard Instrument Company, Meriden, Conn., USA). Cell concentration and viability was also measured after washing using Guava ViaCount Cell Dispersal Reagent for Flow Cytometry (Merck GaA, Darmstadt, Germany) and measured in a Guava EasyCyte 12HT (Merck KGaA, Darmstadt, Germany) to determine how well the cells survived the incubation. Cells were seeded in 96 well plates.
# (§3) Cells were seeded in 96 well plates pre-coated with from 1 to 100 μM olaparib in 0.2 ml medium and incubated at 37° C./5% CO2 for 72 hours before the cytotoxic effect was measured using alamar blue cell viability assay.
# (§4) Cells were incubated with either 0, 0.5 μg/ml or 1 μg/ml Humalutin and the same procedure as described before for treatment with humalutin alone and olaparib alone was followed. Concentrations of olaparib used were between 1 and 100 μM.
# (§5) The Chou-Talalay model was used for synergy calculations using the Compusyn software. R (goodness of fit) was calculated for the individual treatments and should be over 0.90 in in vitro culture experiments in order to use the calculated combination index (CI). The CI is an indication of synergy: 0-0.9 is considered synergy. Synergysm grading was used as described in WO2006004917A2. […]
# as §2, with “viability were” for “viability was”, “plates. Alamar blue viability measurements were performed 120 h after seeding.” for “plates.”
# Granta 519 cells = assay: Alamar Blue cytotoxicity study; details: Homo sapiens; Granta 519, 72 h incubation after seeding; read-out: IC50
# Description: as §1, §2, §3, §4, §5
# as §2, with “viability were” for “viability was”, “plates. Alamar blue viability measurements were performed 120 h after seeding.” for “plates.”
# SUDHL-6 cells = assay: Alamar Blue cytotoxicity study; details: for Combination Index (Chou-Talalay): 120 h
# Description: Cells were treated with either Humalutin, venetoclax or a combination of both and seeded into 96 well-plates. At each time point after treatment, cells were incubated with Alamar Blue (Thermo Fisher, DALL1100) for 4 hours and fluorescence measurements were performed using a multiplate reader Fluoroskan ascent FL to assess cell proliferation and viability. All experiments were done in duplicates using 2 samples in each experiment. Data were normalized to the untreated controls.
# as §2, with “viability were” for “viability was”, “plates. Alamar blue viability measurements were performed 120 h after seeding.” for “plates.”
# Cells were incubated with either 0 (control), 0.5 μg/ml or 1 μg/ml Humalutin for 18 to 20 hours. Cells were then washed and resuspended in fresh medium. Cell bound activity after washing was measured using a calibrated gamma detector (Cobra II auto-gamma detector, Packard Instrument Company, Meriden, Conn., USA). Cell concentration and viability were also measured after washing using Guava ViaCount Cell Dispersal Reagent for Flow Cytometry (Merck GaA, Darmstadt, Germany) and measured in a Guava EasyCyte 12HT (Merck KGaA, Darmstadt, Germany) to determine how well the cells survived the incubation. […] Cytotoxic effect was measured using Alamar blue cell viability assay.
# The Chou-Talalay model was used for synergy calculations using the Compusyn software. R (goodness of fit) was calculated for the individual treatments and should be over 0.90 in in vitro culture experiments in order to use the calculated combination index (CI) with confidence. The CI is an indication of synergy: 0-0.9 is considered synergy. Synergism grading was used as described in Table 13, WO2006004917A2.
# [1] = system: CDK1 and its phosphorylations, p345-Chk1, Wee-1, Myt-1, CDK7 in Ramos cells; assay: Protein expression by Western blot
# Description: (§6) Protein expression was assessed in 1×10^6 Ramos, DOHH2 or Rec-1 cells/mL grown in 12-well plates and exposed for 18 h to 0 and 6 MBq/mL of ^177Lu-lilotomab. Cells were harvested at 0, 2 h, 18 h, 1 d, 2 d and 3 d of RIT. At each time point, cells were rinsed and incubated in RIPA buffer (Santa Cruz) at 4° C. for 30 minutes. Cells were centrifuged and supernatant (containing proteins) were collected. Proteins were electrophoresed through SDS-PAGE using 12% poly-acrylamide gels and electrotransferred onto nitrocellulose membranes. Blots were incubated with anti-CDK1, anti-p-CDK1(Tyr15) (clone 10A11), anti-p-CDK1(Thr14), anti-p-CDK1(Thr161), anti-CDK7, anti-Wee-1 (clone D10D2), anti-Myt-1, anti-p-CHK1 (Ser345) and anti-human GAPDH (1/1000, Cell Signaling Technologies, Leiden, The Netherlands) primary antibodies. Blot were washed and incubated with horseradish peroxidase-conjugated anti-mouse Ig (115-036-072, Jackson ImmunoResearch) or with horseradish peroxidase-conjugated anti-rabbit Ig (7074, Cell Signaling). Signal detection of immunoblots was carried out using the enhanced chemiluminescence protocol according to the manufacturer's instructions (Clarity™ Western ECL blotting substrates, 1705061, BioRad). PXi analyser (Ozyme) was used to measure levels of protein expression.
# [2] = system: CDK1 and its phosphorylations, p345-Chk1, Wee-1, Myt-1, CDK7 in DOHH2 cells; assay: Protein expression by Western blot
# Description: as §6
molecule,measurement,setting,value
CC1(C)CCC(CN2CCN(c3ccc(C(=O)NS(=O)(=O)c4ccc(NCC5CCOCC5)c([N+](=O)[O-])c4)c(Oc4cnc5[nH]ccc5c4)c3)CC2)=C(c2ccc(Cl)cc2)C1 [venetoclax],IC50,DOHH2 cells,2.98 µM
same,IC50,Granta 519 cells,0.331 µM
same,IC50,"SUDHL-6 cells; Homo sapiens, SU-DHL-6, read-out: IC50 at 120 h, SUDHL-6, 120 h incubation after seeding",1.16 µM
same,Combination Index (Chou-Talalay),"SUDHL-6 cells; SUDHL-6, venetoclax 0.25 + Humalutin 0.5 μg/ml",0.63
same,Combination Index (Chou-Talalay),"SUDHL-6 cells; SUDHL-6, venetoclax 0.25 + Humalutin 1 μg/ml",0.82
same,Combination Index (Chou-Talalay),"SUDHL-6 cells; SUDHL-6, venetoclax 0.5 + Humalutin 0.5 μg/ml",0.14
same,Combination Index (Chou-Talalay),"SUDHL-6 cells; SUDHL-6, venetoclax 0.5 + Humalutin 1 μg/ml",0.28
same,Combination Index (Chou-Talalay),"SUDHL-6 cells; SUDHL-6, venetoclax 1 + Humalutin 0.5 μg/ml",0.71
same,Combination Index (Chou-Talalay),"SUDHL-6 cells; SUDHL-6, venetoclax 1 + Humalutin 1 μg/ml",0.41
same,Combination Index (Chou-Talalay),"SUDHL-6 cells; SUDHL-6, venetoclax 2.5 + Humalutin 0.5 μg/ml",0.47
same,Combination Index (Chou-Talalay),"SUDHL-6 cells; SUDHL-6, venetoclax 2.5 + Humalutin 1 μg/ml",0.41
B1,Activating pThr161 CDK1 phosphorylation,[1]; 6 MBq/mL for 18 h,transient low levels
same,CDK1 level,[1]; 6 MBq/mL for 18 h,quite stable
same,Inhibitory pTyr15 and pThr14 CDK1 phosphorylations,[1]; 6 MBq/mL for 18 h,high persistent levels
same,Expression of Myt-1,[1]; 18 h after treatment,decreased
same,Level of phosphorylated CHK1 (Ser345),[1]; at 18-24 h,increased
same,Expression of Wee-1,[1]; between 18 and 48 h,comparable in control and treated
same,Expression of Wee-1,[2]; DOHH2,became undetectable at 24 h post-treatment
same,Activating pThr161 CDK1 phosphorylation,"[2]; DOHH2, 6 MBq/mL for 18 h",persistent increase
same,CDK1 level,"[2]; DOHH2, 6 MBq/mL for 18 h",decreased in DOHH2 at 48 h and 72 h
same,Inhibitory pTyr15 and pThr14 CDK1 phosphorylations,"[2]; DOHH2, 6 MBq/mL for 18 h",dropped respectively at 24 h and 48 h
same,Expression of Myt-1,"[2]; DOHH2, 18 h after treatment",decreased
same,Level of phosphorylated CHK1 (Ser345),"[2]; DOHH2, at 18-24 h",increased
same,Levels of CDK7,"[2]; DOHH2, compared with Ramos cells",stable or increased
